What was measured:
Experiment in all cases: cell-based or functional assay
RPRTSAF = target: RPRTSAF
RPRTSSPA = target: RPRTSSPA
PRTSSF = target: PRTSSF
[1] = target: EE-GSK3β: human GSK3β with the EFMPME (EE) epitope tag at the N-terminus (human) (UniProt P49841)
EE-GSK3β: human GSK3β with the EFMPME (EE) epitope tag at the N-terminus (human), sequence (P49841 other isoform, or with tags, fused parts or gaps): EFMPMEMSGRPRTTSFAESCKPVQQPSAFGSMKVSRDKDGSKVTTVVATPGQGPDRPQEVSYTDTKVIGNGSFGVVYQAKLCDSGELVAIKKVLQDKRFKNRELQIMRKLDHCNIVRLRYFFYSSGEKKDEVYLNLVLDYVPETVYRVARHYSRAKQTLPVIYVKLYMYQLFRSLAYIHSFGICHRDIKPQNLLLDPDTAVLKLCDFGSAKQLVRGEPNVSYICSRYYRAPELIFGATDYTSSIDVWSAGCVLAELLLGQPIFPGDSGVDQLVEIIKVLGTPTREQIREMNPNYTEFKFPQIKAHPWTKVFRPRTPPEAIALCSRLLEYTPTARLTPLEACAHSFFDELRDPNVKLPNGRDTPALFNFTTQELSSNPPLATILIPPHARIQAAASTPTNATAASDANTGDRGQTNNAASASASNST

## HA-RAC-PKα immunoprecipitated from IGF-1 stimulated 293 cells (enzyme)
RPRTSAF
  rate of phosphorylation (cell stands under Vmax; may belong to V (0.1 mM)): 0
RPRTSSPA
  rate of phosphorylation (cell stands under Vmax; may belong to V (0.1 mM)): 0
PRTSSF
  rate of phosphorylation (cell stands under Vmax; may belong to V (0.1 mM)): 0

## HA-RAC-PKα: haemagglutinin epitope-tagged wild-type human RAC-PKα (enzyme)
[1]
  increase in GSK3 activity on PP2A treatment after coexpression in 293 cells: 68%

## HA-KD-RAC-PKα: kinase-dead HA-RAC-PKα in which Lys179 is mutated to Ala (enzyme)
[1]
  increase in GSK3 activity on PP2A treatment after coexpression in 293 cells: 12%

## HA-308D/473D-RAC-PKα: constitutively active double mutant (Thr308 and Ser473 changed to Asp) (enzyme)
[1]
  increase in GSK3 activity on PP2A treatment after coexpression in 293 cells: 85%

Source: patent US20110275102A1
